The record followed here is patent publication US20240132578A1.

Common to all, as to assay: cell-based or functional assay
Assay [1] addresses HIV-1 envelope glycoprotein (Env) of isolate THRO.18, on pseudovirus (HIV-1).
Assay [2] concerns the target HIV-1 92UG024 Env (HIV-1).
The target in assay [3] is HIV-1 envelope glycoprotein (Env) of isolate 92UG037, subtype A (HIV-1).
Assay [4] concerns the target HIV-1 envelope glycoprotein (Env) of isolate 93TH305, on pseudovirus (HIV-1).
Assay [5] deals with HIV-1 92UG005 envelope protein (Env) on pseudovirus (HIV-1).
Assay [6] has as its target HIV-1 envelope glycoprotein (Env) of isolate 92WR020, subtype A (HIV-1).
In assay [7] the target is HIV-1 Env of isolate MGRM-F1-017 (pseudovirus) (HIV-1).
Assay [8] deals with HIV-1 envelope glycoprotein (Env) of isolate MG RM-A-005, subtype A (HIV-1).
For assay [9], the target named is HIV-1 envelope glycoprotein (Env) of isolate 92WR009, subtype A (HIV-1).
In assay [10] the target is HIV-1 envelope glycoprotein (Env) of isolate 92WR024, subtype A (HIV-1).
The target of assay [11] is HIV-1 envelope glycoprotein (Env) of isolate MGRM-AE-007 (HIV-1).
Assay [12] concerns the target HIV-1 envelope glycoprotein (Env) of isolate MG RM-AG-011 (HIV-1).
The target of assay [13] is HIV-1 Env of isolate 92UG046 (HIV-1).
In assay [14] the target is HIV-1 Env of pseudovirus isolate APV-17 (clade B) (HIV-1).
The target of assay [15] is HIV-1 Env of isolate 92UG114 (HIV-1).
In assay [16] the target is HIV-1 Env of isolate MGRM-G-025 (subtype G) (HIV-1).
For assay [17], the target named is HIV-1 Env of isolate 92UG005 (HIV-1).
In assay [18] the target is HIV-1 Env of isolate MGRM-C-022 (subtype C), on pseudovirus (HIV-1).
Assay [19] deals with HIV-1 Env of isolate MGRM-C-027 (subtype C), on pseudovirus (HIV-1).
For assay [20], the target named is HIV-1 Env of isolate MGRM-AG-006 (pseudovirus) (HIV-1).
Assay [21] addresses HIV-1 Env of isolate MGRM-F1-017 (HIV-1).
Assay [22] deals with HIV-1 Env of isolate 92WR026 (pseudovirus) (HIV-1).
Assay [23] deals with HIV-1 MGRM-D-018 envelope protein (Env) on pseudovirus (HIV-1).
In assay [24] the target is HIV-1 MGRM-C-026 Env (HIV-1).
Assay [25] addresses HIV-1 MGRM-D-018 Env (HIV-1).
Assay [26] addresses HIV-1 Env of pseudovirus isolate MGRM-C-023 (clade C) (HIV-1).
In assay [27] the target is HIV-1 Env of isolate MGRM-D-024 (HIV-1).
Assay [28] addresses HIV-1 Env of isolate MGRM-D-005 (pseudovirus) (HIV-1).
Assay [29] deals with HIV-1 Env of isolate MGRM-F1-014 (HIV-1).
The target of assay [30] is HIV-1 Env of isolate MGRM-A-012 (subtype A) (HIV-1).
Assay [31] has as its target HIV-1 Env of isolate MGRM-AG-013 (subtype AG) (HIV-1).
The target in assay [32] is HIV-1 Env of isolate MGRM-AG-006 (subtype AG) (HIV-1).
Assay [33] addresses HIV-1 Env of isolate MGRM-F1-004 (HIV-1).
Assay [34] addresses HIV-1 Env of pseudovirus MGRM-G-017 (HIV-1).
In assay [35] the target is HIV-1 Env of isolate MGRM-D-013 (clade D pseudovirus) (HIV-1).
In assay [36] the target is HIV-1 Env of isolate MGRM-A-003 (clade A pseudovirus) (HIV-1).
Assay [37] addresses HIV-1 Env of pseudovirus MGRM-G-019 (HIV-1).
Assay [38] concerns the target HIV-1 Env of isolate MGRM-D-016 (clade D pseudovirus) (HIV-1).

The IC50 is the point on the concentration scale where inhibition reaches its midpoint.

Sequence of 4980_N08 (PGT-143) (antibody) (VH): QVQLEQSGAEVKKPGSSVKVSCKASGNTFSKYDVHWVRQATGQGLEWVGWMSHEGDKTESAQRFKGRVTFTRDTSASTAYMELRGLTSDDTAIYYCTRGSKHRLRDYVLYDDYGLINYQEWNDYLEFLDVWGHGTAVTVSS
Sequence of 4980_N08 (PGT-143) (antibody) (VL): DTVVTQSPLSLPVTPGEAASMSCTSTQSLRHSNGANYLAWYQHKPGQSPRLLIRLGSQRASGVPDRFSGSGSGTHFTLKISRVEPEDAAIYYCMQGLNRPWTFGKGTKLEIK
Sequence of 4995_P16 (PGT-145) (antibody) (VH): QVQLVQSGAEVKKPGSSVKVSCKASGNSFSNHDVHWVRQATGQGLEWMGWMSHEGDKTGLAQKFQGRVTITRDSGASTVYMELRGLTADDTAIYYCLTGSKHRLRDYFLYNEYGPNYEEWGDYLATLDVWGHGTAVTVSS
Sequence of 4995_P16 (PGT-145) (antibody) (VL): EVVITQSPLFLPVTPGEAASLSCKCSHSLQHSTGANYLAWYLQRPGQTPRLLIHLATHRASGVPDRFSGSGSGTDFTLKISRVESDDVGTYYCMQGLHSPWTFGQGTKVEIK
Sequence of 4970_K22 (PGT-144) (antibody) (VH): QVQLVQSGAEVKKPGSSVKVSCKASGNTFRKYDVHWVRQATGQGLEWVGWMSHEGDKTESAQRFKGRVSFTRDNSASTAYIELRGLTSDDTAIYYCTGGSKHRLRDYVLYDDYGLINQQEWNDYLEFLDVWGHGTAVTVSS
Sequence of 4970_K22 (PGT-144) (antibody) (VL): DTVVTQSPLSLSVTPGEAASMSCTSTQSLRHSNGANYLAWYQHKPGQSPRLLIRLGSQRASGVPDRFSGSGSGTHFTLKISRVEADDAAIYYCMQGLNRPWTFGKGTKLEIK
Sequence of 4995_E20 (PGT-142) (antibody) (VH): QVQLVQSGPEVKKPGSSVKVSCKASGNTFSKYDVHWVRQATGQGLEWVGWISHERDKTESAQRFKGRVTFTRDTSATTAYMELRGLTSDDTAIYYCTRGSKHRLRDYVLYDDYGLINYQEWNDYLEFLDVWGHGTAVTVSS
Sequence of 4995_E20 (PGT-142) (antibody) (VL): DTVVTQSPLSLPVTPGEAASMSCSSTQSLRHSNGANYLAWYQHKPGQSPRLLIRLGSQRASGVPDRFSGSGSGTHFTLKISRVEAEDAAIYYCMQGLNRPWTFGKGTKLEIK
Sequence of 4993_K13 (PGT-141) (antibody) (VH): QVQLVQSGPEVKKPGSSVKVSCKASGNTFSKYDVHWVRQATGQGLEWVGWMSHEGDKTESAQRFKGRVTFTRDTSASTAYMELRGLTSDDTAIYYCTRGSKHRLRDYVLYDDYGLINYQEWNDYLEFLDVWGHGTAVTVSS

In the case of 4838_L06 (PGT-121) (antibody), the IC50, pseudovirus neutralization was greater than 50 µg/mL in assay [1]; greater than 10 µg/mL in assay [2]; 0.031 µg/mL in [3]; 0.007 µg/mL in [4]; 0.004 µg/mL in assay [6]; greater than 50 µg/mL in assay [8]. In addition, the IC50, pseudovirus neutralization is 1.74 µg/mL in assay [9] and greater than 50 µg/mL in assay [10]. The same substance came in with an IC50 (ug/mL), pseudovirus neutralization in [5] greater than 10 µg/mL. The IC50 (µg/mL), pseudovirus neutralization in [7] worked out at 16.9 µg/mL.

Take PGT-142 (4995_E20) (antibody): the IC50 was 6.7 µg/mL in [11] and 0.081 µg/mL in assay [12].

Regarding VRC01 (antibody), the IC50 (µg/mL), pseudovirus neutralization in assay [13] is 12.7 µg/mL; in assay [15] it was 0.33 µg/mL; in assay [16], 0.292 µg/mL; in assay [17] it was 0.576 µg/mL. In addition, the IC50, pseudovirus neutralization in assay [14] was 0.477 µg/mL. The IC50 was 0.835 µg/mL in [11] and 0.084 µg/mL in assay [12]. For the same substance, the values for the IC50, single-round pseudovirus neutralization in [18] and in [19] were 13 µg/mL and 0.125 µg/mL, respectively.

Turning to PGT-143 (4980_N08) (antibody), the IC50 was 13.6 µg/mL in [11] and 0.156 µg/mL in assay [12].

Consider PGV04 (antibody), for which the results for the IC50 (µg/mL), pseudovirus neutralization in assay [16], in [20] and in assay [21] were 1.61 µg/mL, 1.23 µg/mL and 2.38 µg/mL, respectively.

Turning to 4970_K22 (PGT-144) (antibody), the IC50 (µg/mL), pseudovirus neutralization in [13], in assay [15], in assay [16] and in [17] was greater than 50 µg/mL each time. Also, in [14], the IC50, pseudovirus neutralization is 10.3 µg/mL. The same substance showed an IC50 (µg/mL), single-round pseudovirus neutralization in [22] of 32.7 µg/mL. Moreover, the IC50, single-round pseudovirus neutralization is 2.58 µg/mL in assay [18] and greater than 50 µg/mL in assay [19].

As to PGT-145 (4995_P16) (antibody), the IC50 worked out at 0.181 µg/mL in assay [11] and 0.003 µg/mL in assay [12].

Take 4995_E20 (PGT-142) (antibody): the IC50 (µg/mL), pseudovirus neutralization in assay [13], in [15], in assay [16] and in assay [17] was greater than 50 µg/mL in each case. The IC50, pseudovirus neutralization in [14] stood at 0.628 µg/mL. The IC50 (µg/mL), single-round pseudovirus neutralization in [22] stood at 1.78 µg/mL. Further, the IC50, single-round pseudovirus neutralization was 0.086 µg/mL in assay [18] and 0.792 µg/mL in assay [19].

Turning to 4877_D15 (PGT-122) (antibody), the IC50, pseudovirus neutralization in [1] was greater than 50 µg/mL; in assay [2], greater than 10 µg/mL; in [3] it was 0.068 µg/mL; in assay [4], 0.013 µg/mL; in [6] it was 0.009 µg/mL; in assay [24] it was 0.0089 µg/mL. Moreover, the IC50, pseudovirus neutralization in [25] was 0.0115 µg/mL; in assay [8], greater than 50 µg/mL; in assay [9], 42.4 µg/mL; in [10] it was greater than 50 µg/mL. Further, the IC50 (ug/mL), pseudovirus neutralization in assay [5] is greater than 10 µg/mL; in assay [23] it was 0.0115 µg/mL. For the same substance, the IC50 (µg/mL), pseudovirus neutralization in assay [20] is 0.028 µg/mL; in assay [7], greater than 50 µg/mL.

Turning to 5345_I01 (PGT-137) (antibody), the IC50, pseudovirus neutralization in [26] is 0.23 µg/mL; in [30], greater than 50 µg/mL; in assay [31], greater than 50 µg/mL; in [32] it was 28.3 µg/mL. Besides, the IC50 (µg/mL), pseudovirus neutralization is greater than 50 µg/mL in assay [27]; greater than 50 µg/mL in assay [28]; greater than 50 µg/mL in [29]; 0.092 µg/mL in assay [22]; 40.3 µg/mL in [33]; greater than 50 µg/mL in assay [21].

With 5329_C19 (PGT-136) (antibody), the IC50, pseudovirus neutralization in [26] is 3.2 µg/mL; in assay [30], greater than 50 µg/mL; in [31] it was greater than 50 µg/mL; in [32] it was 29.1 µg/mL. Moreover, the IC50 (ug/mL), pseudovirus neutralization in assay [5] and in [23] was greater than 10 µg/mL in each case. In addition, the IC50 (µg/mL), pseudovirus neutralization in assay [27], in [28], in assay [29], in assay [22], in assay [33] and in [21] was greater than 50 µg/mL in each case.

4993_K13 (PGT-141) (antibody): the IC50 (µg/mL), pseudovirus neutralization in assay [13] is greater than 50 µg/mL; in assay [15], greater than 50 µg/mL; in [16], greater than 50 µg/mL; in [17] it was greater than 5 µg/mL. This substance came in with an IC50, pseudovirus neutralization in [14] of 0.59 µg/mL. This substance also returned an IC50 (µg/mL), single-round pseudovirus neutralization in assay [22] of 1.78 µg/mL. For the same substance, the IC50, single-round pseudovirus neutralization in assay [18] was 0.381 µg/mL; in assay [19], 3.27 µg/mL.

In the case of PGT-141 (4964_G22; 4993_K13) (antibody), the IC50 is 33.1 µg/mL in assay [11] and 0.118 µg/mL in [12].

Regarding 4995_P16 (PGT-145) (antibody), the IC50 (µg/mL), pseudovirus neutralization was greater than 50 µg/mL in assay [13], 20.1 µg/mL in [15], greater than 50 µg/mL in assay [16] and greater than 50 µg/mL in assay [17]. In addition, in assay [14], the IC50, pseudovirus neutralization is 0.488 µg/mL. This substance also registered an IC50 (µg/mL), single-round pseudovirus neutralization in assay [22] of 1.45 µg/mL. Besides, the IC50, single-round pseudovirus neutralization in assay [18] amounted to 0.492 µg/mL; in [19] it was 0.095 µg/mL.

Regarding 4980_N08 (PGT-143) (antibody), the IC50 (µg/mL), pseudovirus neutralization in assay [13], in assay [15], in [16] and in assay [17] was greater than 50 µg/mL each time. In [14], this substance registered an IC50, pseudovirus neutralization of 1.11 µg/mL. In assay [22], this substance showed an IC50 (µg/mL), single-round pseudovirus neutralization of 5.36 µg/mL. Also, the IC50, single-round pseudovirus neutralization in assay [18] is 0.103 µg/mL; in assay [19], 0.598 µg/mL.

PGT-144 (4970_K22) (antibody): the figures for the IC50 in assay [11] and in [12] were greater than 50 µg/mL and 44.6 µg/mL, respectively.

Consider 1496_C09 (PG9) (TCN-109) (antibody), for which the IC50, pseudovirus neutralization was 1.91 µg/mL in assay [2]; 0.06 µg/mL in [35]; 0.113 µg/mL in assay [24]; 2.04 µg/mL in [25]; 0.1 µg/mL in [38]. Moreover, the IC50 (µg/ml), pseudovirus neutralization in [34] turned out to be 0.03 µg/mL; in assay [36], 0.65 µg/mL; in [37], 0.67 µg/mL. The substance further had an IC50 (ug/mL), pseudovirus neutralization in assay [23] of 0.0444 µg/mL.
